The target of the data set is T1, Ac-FQPKKS(Ac)G-NH2 (alkylated acetyl-lysine analog of peptide 1).
T1 chain: FQPKXG

B1: human sirtuin 2 (SIRT2) enzyme (protein)
chain: MAEPDPSHPLETQAGKVQEAQDSDSDSEGGAAGGEADMDFLRNLFSQTLSLGSQKERLLDELTLEGVARYMQSERCRRVICLVGAGISTSAGIPDFRSPSTGLYDNLEKYHLPYPEAIFEISYFKKHPEPFFALAKELYPGQFKPTICHYFMRLLKDKGLLLRCYTQNIDTLERIAGLEQEDLVEAHGTFYTSHCVSASCRHEYPLSWMKEKIFSEVTPKCEDCQSLVKPDIVFFGESLPARFFSCMQSDFLKVDLLLVMGTSLQVQPFASLISKAPLSTPRLLINKEKAGQSDPFLGMIMGLGGGMDFDSKKAYRDVAWLGECDQGCLALAELLGWKKELEDLVRREHASIDAQSGAGVPNPSTSASPKKSPPPAKDEARTTEREKPQ
With B1, the deacetylation rate (SIRT2 assay, C18 analytical HPLC) (fold of the rate on the native peptide) was determined as 0.33 and the “enzymatic deacetylation (SIRT2 assay, HPLC peak of the deacetylated product)” value is listed as “the sLys(Ac) residue in the alkylated peptide 1 was susceptible to enzymatic deacetylation, albeit to a lesser degree, compared to its native counterpart”.

The values are drawn from patent US9309278.
